According to the nanobody polyreactivity screen of Harvey et al. (2022):

Assay: yeast display, Sf9 membrane polyspecificity reagent, FACS + sequencing; frameworks hold sequencing errors
Procedure, shortened: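 Nanobodies came from a synthetic yeast display library in Saccharomyces cerevisiae BJ5465, induced with galactose for 36–48 hours and stained for 1 hour at 4 °C with 10% biotinylated, detergent-solubilized Sf9 membrane reagent. Cells were enriched on streptavidin microbeads and then FACS-sorted, with low and high (top ~1%) gates set on anti-HA fluorescence for expression and streptavidin fluorescence for reagent binding. Each polyreactivity label reflects the gate a clone came from. Genes were amplified by colony PCR, sequenced by MiSeq 2 × 250 and filtered by CDR length.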
With “QVQLVESGGGLVQAGGSLRLSCAASGSIFKDYAMGWYRQAPGKERELVASITSGGRTYADSVKGRFTISRDNAKNTVYLQMNSLKPEDTAVYYCNTAHSKAWQYDYWGQGTQVTVSS” the “polyreactivity (PSR sort gate)” value was “high polyreactivity”. In the case of “QVQLVESGGGLVQAGGSLRLSCAASGSIFKFYAMGWYRQAPGKERELVAAISQSGGRTYYADSVKGRFTISRDNAKNTVYLQMNSLKPEDTAVYYCAKSVFPVYGRPSNLWFNYWGQGTQVTVSS”, the “polyreactivity (PSR sort gate)” value is reported as “high polyreactivity”. With “QVQLVESGGGLVQAGGSLRLSCAASGSIFKFYTMGWYRQAPGKERELVAAISSSDGSTHYADSVKGRFTISRDNAKNTVYLQMNSLKPEDTAVYYCARRRYSRYSVTRGNYWGQGTQVTVSS” the “polyreactivity (PSR sort gate)” value was “high polyreactivity”. With “QVQLVESGGGLVQAGGSLRLSCAASGSIFKGYAMGRYIQAPGKERELVAAISSSGGSTYYADSVKGRFTISRDNAKNTVYLQMNSLKPEDTAVYYCNTDRYYTYDYLGQGTQVTVSS” the “polyreactivity (PSR sort gate)” value was “low polyreactivity”. With “QVQLVESGGGLVQAGGSLRLSCAASGSIFKGYAMGWYRQAPGKERELVAAITYSGGSTYYADSVKGRFTISRDNAKNTVYLQMNSLKPEDTAVYYCAADSEQDNLRYYRWVWYYYWGQGTQVTVSS” the “polyreactivity (PSR sort gate)” value was “low polyreactivity”. In the case of “QVQLVESGGGLVQAGGSLRLSCAASGSIFKGYDMGWYRQAPGKERELVAAISSGSTNYADSVKGRFTISRDNAKNTVYLQMNSLKPEDTAVYYCNADLGRATFYQRVVIERGGYWGQGTQVTVSS”, the “polyreactivity (PSR sort gate)” value is reported as “low polyreactivity”. With “QVQLVESGGGLVQAGGSLRLSCAASGSIFKIYAMGWYRQAPGKARELVATISINGGSTYYADSVKGRFTISRDNAKNTVYLQMNSLKPEDTAVYDCNKVNEYITSQDDYGGQGTQVTVSS” the “polyreactivity (PSR sort gate)” value was “low polyreactivity”. In the case of “QVQLVESGGGLVQAGGSLRLSCAASGSIFKKYAMGWYRQAPGKERELVAAISSGGGSTYYADSVKGRFTISRDNAKNTVYLQMNSLKPEDTAVYYCNARIQYFKYRGYEYWGQGTQVTVSS”, the “polyreactivity (PSR sort gate)” value is reported as “high polyreactivity”. In the case of “QVQLVESGGGLVQAGGSLRLSCAASGSIFKLYAMGWYRQAPGKERELVASISVSGGSTYYADSVKGRFTISRDNAKNTVYLQMNSLKPEDTAVYYCAAEKRSSIVGSGGNYWGQGTQVTVSS”, the “polyreactivity (PSR sort gate)” value is reported as “low polyreactivity”. With “QVQLVESGGGLVQAGGSLRLSCAASGSIFKNYAMGWYRQAPGKERELVASITTGASTNYADSVKGLFTISRDNAMNTVYLQMNSLKPEDSAVYYCAAYRPTYYAYYYWGQGTQVTVSS” the “polyreactivity (PSR sort gate)” value was “high polyreactivity”. In the case of “QVQLVESGGGLVQAGGSLRLSCAASGSIFKQNAMGRYRQAPGKESELVSDITSCGGSTYYADSVKGRFTISRDNAKNTVYLQMNSLKPEDTAVYYCNVVETSLELGWQAFDYWGQGTQVTVSS”, the “polyreactivity (PSR sort gate)” value is reported as “low polyreactivity”. With “QVQLVESGGGLVQAGGSLRLSCAASGSIFKRYAMGWYRQAPGKERELVAAISRRGASTYYADSVKGRFTISRDNAKNTVYLQMNSLKPEDTAVYYCNAYLPRQGPSGRPRSQYDSWGQGTQVTVSS” the “polyreactivity (PSR sort gate)” value was “high polyreactivity”. With “QVQLVESGGGLVQAGGSLRLSCAASGSIFKSNAMGWYRQAPGKERELVAAISNGGITNYADSVKGRFTISRDNAKNTVFLQMNSLKPEDTAVYYCATSDVREIWVDYWGQGTQVTVSS” the “polyreactivity (PSR sort gate)” value was “low polyreactivity”. For “QVQLVESGGGLVQAGGSLRLSCAASGSIFKSYAMGWYRQAPGKERELVAAITWRSGRTYYADSVKGRFTISRDNAKNTVYLQMNSLKPEDTAVYYCAADDTSYYIYSYDYWGQGTQVTVSS”, the “polyreactivity (PSR sort gate)” value was “low polyreactivity”. With “QVQLVESGGGLVQAGGSLRLSCAASGSIFKSYAMGWYRQAPGKERELVAVISDSGSTYYADSVKGRFTISRDNAKNTVYLQKNSLKPEDTAVYYCRGRGRRNEYWGQGTQVTVSS” the “polyreactivity (PSR sort gate)” value was “high polyreactivity”. With “QVQLVESGGGLVQAGGSLRLSCAASGSIFKSYAMGWYRQAPGKERELVAVISDSGSTYYADSVKGRFTISRDNAKNTVYLQMNSLKPEDTAVYYCRGRGRRNEYWGQGTQVTVSS” the “polyreactivity (PSR sort gate)” value was “high polyreactivity”. In the case of “QVQLVESGGGLVQAGGSLRLSCAASGSIFKTNAMGWYRQAPRKERELVAGISNVGSTNYADSVKGRFTISRDNAKNTVYLQMNSLKPEDTAVYYCAAPYTSQTIPDYVRYFIEYDYWGQATQVTVSS”, the “polyreactivity (PSR sort gate)” value is reported as “low polyreactivity”. In the case of “QVQLVESGGGLVQAGGSLRLSCAASGSIFKTYAMGWSRPAPGKERELVAAITSSGGSTYYADSVKGRFTISRDNAKNTVDLQMNSLKPEDTAVYDCAALSGQARRMYYWGQGTQVTVSS”, the “polyreactivity (PSR sort gate)” value is reported as “high polyreactivity”. With “QVQLVESGGGLVQAGGSLRLSCAASGSIFKVYAMGWYRQAPGKERELVASISYSGGSTYYADSVKGRFTISRDNAKNTVYLQMNSLKPEDTAVYYCNADTITYQGYDYGYWGQGTQVTVSS” the “polyreactivity (PSR sort gate)” value was “low polyreactivity”. In the case of “QVQLVESGGGLVQAGGSLRLSCAASGSIFKVYAMGWYRQAPGKERELVASITSGGRTYADSVKGRFTISRDNAKNTVYLQMNSLKPEDTAVYYCSARSRSKFYYWGQGTQLTVSS”, the “polyreactivity (PSR sort gate)” value is reported as “high polyreactivity”. With “QVQLVESGGGLVQAGGSLRLSCAASGSIFKWNAMGWYRQAPGKERELVASITRSGGSTYYADSVKGRFTISRDNAKNTVYLQMNSLKPEDTAVYYCARSYGWYRWAGYDYWGQGTQVTVSS” the “polyreactivity (PSR sort gate)” value was “high polyreactivity”. For “QVQLVESGGGLVQAGGSLRLSCAASGSIFKWYAMGWYRQAPGKERELVAAITRGGSTNYADSVKGRFTISRDNAKNTVYLQMNSLKPEDTAVYYCNAVYTYRSGFGYWGQGTQVTVSS”, the “polyreactivity (PSR sort gate)” value was “low polyreactivity”. For “QVQLVESGGGLVQAGGSLRLSCAASGSIFKYNPMGWYRQAPGKEMELVATISGGGRTYYADSVKGRFTISRDNAKNTVYLQMNSLKPEDTAVYYCAARKRGTFTYDYWGQGTQVTVSS”, the “polyreactivity (PSR sort gate)” value was “high polyreactivity”. For “QVQLVESGGGLVQAGGSLRLSCAASGSIFKYYAMGWYRQAPGKERELDAAISYSGGRTYYADSVKGRFTISRDNAKNTVYLQMNSLKPEDTAVYYCATDYYYRSAKFLGDYWGQGTQVTVSS”, the “polyreactivity (PSR sort gate)” value was “high polyreactivity”. In the case of “QVQLVESGGGLVQAGGSLRLSCAASGSIFKYYAMGWYRQAPGKERELVAAISVRGSRTYYADSVKGRFTISRDNAKNTVYLQMNSLKPEDTAVYYCAADGGYIPPYGYDYWGQGTQVTVSS”, the “polyreactivity (PSR sort gate)” value is reported as “high polyreactivity”. In the case of “QVQLVESGGGLVQAGGSLRLSCAASGSIFKYYAMGWYRQAPGTERELVAAISTGGTTNYADSVKGRFTISRDNAKNTVYLQMNSLKPEDTAVYYCNRDYLVRSRYKYYYWGQGTQVTVSS”, the “polyreactivity (PSR sort gate)” value is reported as “low polyreactivity”. In the case of “QVQLVESGGGLVQAGGSLRLSCAASGSIFKYYTMGWYRQAPGKERELVARISTRGDSTYYADSVKGRFTISRDNAKNTVYLQMNSLKPEDTAVYYCNARPGSRRSSTWGMDYWGQGTQVTVSS”, the “polyreactivity (PSR sort gate)” value is reported as “high polyreactivity”. With “QVQLVESGGGLVQAGGSLRLSCAASGSIFLASAMGWYRQAPGKERELVAAITAGTGSTYYADSVKGRFTISRDNAKNTVYLQMNSLKPEDTAVYYCAKAVSLFRGPFSSFDYWGQGTQVTVSS” the “polyreactivity (PSR sort gate)” value was “low polyreactivity”. For “QVQLVESGGGLVQAGGSLRLSCAASGSIFLAYAMGWYRQAPGKEREFVAAISSRGGSTYYADSVKGRFTISRDNAKNTVYLQMNSLKPEDTAVYYCARYKYTRQTRVEYGYWGQGTQVTVSS”, the “polyreactivity (PSR sort gate)” value was “high polyreactivity”. With “QVQLVESGGGLVQAGGSLRLSCAASGSIFLAYAMGWYRQAPGKERELVADISYSGGRTYYADSVMGRFTISRDNAKNTVYLQMNSLIPEDTAVYYCAADPWHDTDQHGNDYWGQGSQVTVSS” the “polyreactivity (PSR sort gate)” value was “low polyreactivity”. For “QVQLVESGGGLVQAGGSLRLSCAASGSIFLAYAMGWYRQAPGKERELVASTYYADSVKGRFTISRDNAKNTVYLQMNSLKPEDTAVYYCAADRIYSIYVSPYYSFGYWGQGTQVTVSS”, the “polyreactivity (PSR sort gate)” value was “low polyreactivity”. For “QVQLVESGGGLVQAGGSLRLSCAASGSIFLAYDMGWYRQAPGKERELVAAISYTGGSTNYADSVKGRFTISRDNAKNTVYLQMNSLKPEDTAVYYCNTAGDLWIDYGYWGQGTQVTVSS”, the “polyreactivity (PSR sort gate)” value was “low polyreactivity”. In the case of “QVQLVESGGGLVQAGGSLRLSCAASGSIFLAYPMGWYRQAPGKEREFVAAISFSDGSTYYADSVKGRFTISRDNAKNTVYLQMNSLKPEDTAVYYCNKRASPDDYDYWGQGTQVTVSS”, the “polyreactivity (PSR sort gate)” value is reported as “low polyreactivity”. With “QVQLVESGGGLVQAGGSLRLSCAASGSIFLDNAMGWYRPAPGKERELVAAISRRGGTTYYADSVKGRFTISRDNAKNTVYLQLNSLIPEDTAVYYCAARYPGGKYYSYTYNYWGQGTQVTVSS” the “polyreactivity (PSR sort gate)” value was “high polyreactivity”. With “QVQLVESGGGLVQAGGSLRLSCAASGSIFLDYAMGWYRQAPGKERELVDGITISGGSTYYADSVKGRFTISRDNAKNTVYLQMNSLKPEYTAVYYCAKVAPRSSSSQEYYYWGQGTQVTVSS” the “polyreactivity (PSR sort gate)” value was “low polyreactivity”. With “QVQLVESGGGLVQAGGSLRLSCAASGSIFLGNTMGWYRQAPGKERELVAAITIGGSTHYADSVKGRFTISRDNAKNTVYLQMNSLKPDDTAVYYCAKEGWPFGIDFDYWGQGTQVTVSS” the “polyreactivity (PSR sort gate)” value was “low polyreactivity”. For “QVQLVESGGGLVQAGGSLRLSCAASGSIFLGYAMGWYRQAPGKERELVADIDWRDGSTYYADSVKGRFTISRDNAKTTVYLQMNSLKPEDTAVYYCAVYDNLQWDFGIYYEYDYWGQGTQVTVSS”, the “polyreactivity (PSR sort gate)” value was “high polyreactivity”. For “QVQLVESGGGLVQAGGSLRLSCAASGSIFLHNAMGWYRQAPGKERELVAVITSRGGSTYYADSVKGRFTISRDNAKNTVYLQMNSLKPEDTAVYYCAADSRQSDYYYQPTKIDYWGQGTQVTVSS”, the “polyreactivity (PSR sort gate)” value was “low polyreactivity”. With “QVQLVESGGGLVQAGGSLRLSCAASGSIFLHNAMGWYRQAPGKERVLVAVITSRGGSTYYADSVKGRFTISRDNAKNPVYLQMNSLKPEDTAVYYCAAPAYHKRTSRGDYWGQGTQVTVSS” the “polyreactivity (PSR sort gate)” value was “low polyreactivity”. With “QVQLVESGGGLVQAGGSLRLSCAASGSIFLINAMGWYRQAPGKERELVAAISRSGGRTYYADSVKGRFTISRDNAKNTVYLEMNSLKPEDTAVYYCAVPSIYYAVRAYDYWGQGTQVTVSS” the “polyreactivity (PSR sort gate)” value was “high polyreactivity”. In the case of “QVQLVESGGGLVQAGGSLRLSCAASGSIFLINAMGWYRQAPGKETELVAAISRSGGRTYYADSVKGRFTISRDNAKNTVYLQMNSLKPEDTAVYYCAVPSIYYAGRAYDYWGQGTQVTVSS”, the “polyreactivity (PSR sort gate)” value is reported as “high polyreactivity”. In the case of “QVQLVESGGGLVQAGGSLRLSCAASGSIFLINAMGWYRQAPGTERELVAAISRRGGSTYYADSVKGRFTISRDNAKNTVYLQMNSLKPEDTAVYYCAATGHGRVYFGGGHWGQGTQVTVSS”, the “polyreactivity (PSR sort gate)” value is reported as “high polyreactivity”. In the case of “QVQLVESGGGLVQAGGSLRLSCAASGSIFLIYAMGSYRQAPGKERELVATINRGDNTYYADSVKGRFTISRDNAKNTVYLQMNSLKPEDTAVYYCAADVPWGWWDSDFSDNYYWGQGTQVTVSS”, the “polyreactivity (PSR sort gate)” value is reported as “low polyreactivity”.
